This note sets out measurements from publication PMC3084279, “Critical Factors Governing the Difference in Antizyme-Binding Affinities between Human Ornithine Decarboxylase and Antizyme Inhibitor” (PLoS ONE, 2011).

The target in series [1] is human antizyme inhibitor, wild type (human) (UniProt O14977). Put plainly: AUC; sedimentation velocity, 42,000 rpm; ODC or AZI fixed at 0.3 mg/mL with AZ at 0.015, 0.03, 0.06 or 0.09 mg/mL; data globally fitted with SEDPHAT to the A+B<->AB hetero-association model.
In series [2] the target is human ornithine decarboxylase N125K/M140K double mutant (human) (UniProt P11926). The description is as above.
For series [3], the target named is human ornithine decarboxylase M140K mutant (human) (UniProt P11926). Described as above.
In series [4] the target is human ornithine decarboxylase N125K mutant (human) (UniProt P11926). The description is as above.
For series [5], the target named is human antizyme inhibitor K125N/K140M double mutant (human) (UniProt O14977). The series is described as above.
The target in series [6] is human antizyme inhibitor K140M mutant (human) (UniProt O14977). Described as above.
For series [7], the target named is human antizyme inhibitor K125N mutant (human) (UniProt O14977). Described as above.
Series [8] deals with human ornithine decarboxylase, wild type (human) (UniProt P11926). The description is as above.
Series [9] has as its target human ornithine decarboxylase N125K/M140K double mutant (human) (UniProt P11926).
Series [10] has as its target human ornithine decarboxylase F133C mutant (human) (UniProt P11926).
Series [11] concerns the target human ornithine decarboxylase N126V mutant (human) (UniProt P11926).
The target of series [12] is human ornithine decarboxylase N125K/M140K double mutant (human) (UniProt P11926). The source holds these as a separate data set.
Series [13] has as its target human ornithine decarboxylase S135N mutant (human) (UniProt P11926).
Series [14] deals with human ornithine decarboxylase M140K mutant (human) (UniProt P11926).
Series [15] deals with human ornithine decarboxylase N125K mutant (human) (UniProt P11926).
Series [16] concerns the target human ornithine decarboxylase, wild type (human) (UniProt P11926).
The target in the next series is human antizyme (human) (UniProt P54368).
Series [17] deals with the molecule itself. Put plainly: AUC; sedimentation velocity, 42,000 rpm; continuous size distribution (SEDFIT) of ODC or AZI without AZ.

Bounds are passed on as bounds.

In general, Kd refers to the free concentration of one partner at which half of the binding sites on the other are occupied at equilibrium, for simple one-to-one binding. A low value points to higher affinity. As a reminder, the stoichiometry N is a count of units in the complex or per binding partner.

human antizyme inhibitor K140M mutant (human), sequence (O14977 whole entry K140M): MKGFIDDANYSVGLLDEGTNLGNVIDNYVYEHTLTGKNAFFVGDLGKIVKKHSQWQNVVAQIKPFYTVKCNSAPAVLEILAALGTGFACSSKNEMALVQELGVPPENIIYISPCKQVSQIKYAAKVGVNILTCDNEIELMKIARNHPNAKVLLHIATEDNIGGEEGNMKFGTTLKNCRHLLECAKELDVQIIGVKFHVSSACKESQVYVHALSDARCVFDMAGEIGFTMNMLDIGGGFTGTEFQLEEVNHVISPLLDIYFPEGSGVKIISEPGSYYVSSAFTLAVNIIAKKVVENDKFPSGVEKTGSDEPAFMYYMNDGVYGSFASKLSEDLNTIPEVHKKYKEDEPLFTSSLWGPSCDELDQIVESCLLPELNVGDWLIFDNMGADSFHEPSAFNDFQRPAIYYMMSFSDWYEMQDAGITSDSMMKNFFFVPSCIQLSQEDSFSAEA
human antizyme inhibitor K125N/K140M double mutant (human), sequence (O14977 whole entry K125N/K140M): as the sequence (O14977 whole entry K140M) above, with K125N counted along it
human antizyme inhibitor, wild type (human), sequence (O14977 whole entry): as the sequence (O14977 whole entry K140M) above, with M140K counted along it
human antizyme inhibitor K125N mutant (human), sequence (O14977 whole entry K125N): as the sequence (O14977 whole entry K140M) above, with K125N, M140K counted along it

Take “human antizyme (from UniProt P54368 1-228) (natural protein)”: the Kd in series [1] came out at 20 nM; in series [2], 20 nM; in series [3], 140 nM; in [4], 100 nM; in series [5], 180 nM; in [6] it was 110 nM. Moreover, the Kd came to 160 nM in [7] and 210 nM in series [8]. Besides, in series [9], the residual enzyme activity of AZ-inhibited ODC N125K/M140K on rescue by high concentrations of AZI (AZ:ODC monomer ratio 4.0) stood at 20%. Besides, the IC50,AZ: concentration of AZ required for 50% inhibition of ODC enzyme activity (ODC 20 µg/mL) came to 450 nM in series [10]; 440 nM in series [11]; 80 nM in series [12]; 490 nM in series [13]; 130 nM in series [14]; 100 nM in series [15]. This molecule also yielded an IC50,AZ: concentration of AZ required for 50% inhibition of ODC enzyme activity (ODC 20 µg/mL) in series [16] of 250 nM.

With “human antizyme inhibitor, wild type (from UniProt O14977 1-448) (natural protein)”, the residual enzyme activity of AZ-inhibited ODC WT (AZ:ODC monomer ratio 4.0) with increasing AZI concentrations with human antizyme (human) was > 90%.

B1: human ornithine decarboxylase, wild type (enzyme, UniProt P11926 1-461, looked up)
chain: MNNFGNEEFDCHFLDEGFTAKDILDQKINEVSSSDDKDAFYVADLGDILKKHLRWLKALPRVTPFYAVKCNDSKAIVKTLAATGTGFDCASKTEIQLVQSLGVPPERIIYANPCKQVSQIKYAANNGVQMMTFDSEVELMKVARAHPKAKLVLRIATDDSKAVCRLSVKFGATLRTSRLLLERAKELNIDVVGVSFHVGSGCTDPETFVQAISDARCVFDMGAEVGFSMYLLDIGGGFPGSEDVKLKFEEITGVINPALDKYFPSDSGVRIIAEPGRYYVASAFTLAVNIIAKKIVLKEQTGSDDEDESSEQTFMYYVNDGVYGSFNCILYDHAHVKPLLQKRPKPDEKYYSSSIWGPTCDGLDRIVERCDLPEMHVGDWMLFENMGAYTVAAASTFNGFQRPTIYYVMSGPAWQLMQQFQNPDFPPEVEEQDASTLPVSCAWESGMKRHRAACASASINV
notes: Ornithine decarboxylase (EC 4.1.1.17), human; Homodimer without AZ (S about 6); dissociates to form a heterodimer with AZ; Gene sub-cloned into pQE30; also called ODC; source: E. coli JM109, purified (Ni-NTA Sepharose)
In the case of B1, the “stoichiometry N” value in [17] was 2.
